Laboratory results as given in publication PMC4549621, “Molecular basis for mid-region amyloid-β capture by leading Alzheimer's disease immunotherapies” (Scientific Reports, 2015).

Target: T1, amyloid-β peptide residues 12–28 (Aβ12–28), wild type
T1 construct: cut product of the amyloid precursor protein; numbers count on: the Aβ peptide (Asp1 of Aβ); also called Aβ peptide; mid-region of the Aβ peptide; source: bought: Anaspec (95% purity)
T1 chain: VHHQKLVFFAEDVGSNK
Assay: crystal structure; Fab:Aβ12–28 mixed at molar ratio 1:2, dialysed in 10 mM HEPES pH 7.5; crystals from 16% w/v PEG 3350, 50 mM sodium citrate pH 4, 295 K; 2.4 Å, two complexes in the asymmetric unit
Settings: both partners purified

B1: solanezumab Fab fragment (recombinant, Asn55(H2)Ser) (Fab, V domains shown)
VH: EVQLVESGGGLVQPGGSLRLSCAASGFTFSRYSMSWVRQAPGKGLELVAQINSVGSSTYYPDTVKGRFTISRDNAKNTLYLQMNSLRAEDTAVYYCASGDYWGQGTLVTVSS
VL: DVVMTQSPLSLPVTLGQPASISCRSSQSLIYSDGNAYLHWFLQKPGQSPRLLIYKVSNRFSGVPDRFSGSGSGTDFTLKISRVEAEDVGVYYCSQSTHVPWTFGQGTKVEIK
notes: Fab heavy chain of solanezumab; glycosylation site removed by Asn55(H2)Ser; Fab light chain of solanezumab; Parent antibody is IgG1; only the Fab portion was made; source: FreeStyle 293-F cells, co-transfected, purified from supernatant (Ni-NTA, SEC)
B1: binds.
